test: soluble on expression in E. coli; label from the status in PepcDB or PDB records

Question: With “MGSSHHHHHHSSGLEVLFQGPLHMRTQGIKPRIREILSKELPEELVKLLPKRWVRIGDVLLLPLRPELEPYKHRIAEVYAEVLGVKTVLRKGHIHGETRKPDYELLYGSDTVTVHVENGIKYKLDVAKIMFSPANVKERVRMAKVAKPDELVVDMFAGIGHLSLPIAVYGKAKVIAIEKDPYTFKFLVENIHLNKVEDRMSAYNMDNRDFPGENIADRILMGYVVRTHEFIPKALSIAKDGAIIHYHNTVPEKLMPREPFETFKRITKEYGYDVEKLNELKIKRYAPGVWHVVLDLRVFKS” as the sequence, how does the “soluble on expression in E. coli” value read?
Answer: soluble

Question: Which “soluble on expression in E. coli” value does the source give for “MGSSHHHHHHSSGLVPRGSEVVIVSATRTPIGSFLGSLSLLPATKLGSIAIQGAIEKAGIPKEEVKEAYMGNVLQGGEGQAPTRQAVLGAGLPISTPCTTINKVCASGMKAIMMASQSLMCGHQDVMVAGGMESMSNVPYVMNRGSTPYGGVKLEDLIVKDGLTDVYNKIHMGSCAENTAKKLNIARNEQDAYAINSYTRSKAAWEAGKFGNEVIPVTVTVKGQPDVVVKEDEEYKRVDFSKVPKLKTVFQKENGTVTAANASTLNDGAAALVLMTADAAKRLNVTPLARIVAFADAAVEPIDFPIAPVYAASMVLKDVGLKKEDIAMWEVNEAFSLVVLANIKMLEIDPQKVNINGGAVSLGHPIGMSGARIVGHLTHALKQGEYGLASICNGGGGASAMLIQKL” here?
Answer: soluble

Question: With “MGSSHHHHHHSSGLVPRGSHMANVAIIGTEKSGRTSLAANLGKKGTSSDITMYNNDKEGRNMVFVDAHSYPKTLKSLITALNISDIAVLCIPPQGLDAHTGECIIALDLLGFKHGIIALTRSDSTHMHAIDELKAKLKVITSGTVLQDWECISLNTNKSAKNPFEGVDELKARINEVAEKIEAENAELNSLPARIFIDHAFNVTGKGCVVLGVVKQGISKDKDKTKIFPLDRDIEIRSIQSHDVDIDSAPAGTRVGMRLKNVQAKDIERGFIISDKEIVTTDYTLECTVSKFTKKIEPASVLHLFVGLQSEPVRVEKILVDGNEVEEAKPGSTCVLELSGNKKLAYSKQDRFLLANLDLTQRFAAYGFSK” as the sequence, how does the “soluble on expression in E. coli” value read?
Answer: soluble

Question: With “MGSSHHHHHHSSGLVPRGSHMASKNVSIIGSPLAAGQPLGGVQLACDDLRKLGLHNVIDVLGWKYEDIGNIDNGDNEMKQEKKTNNYINNNDNNNDNNNDNNNDNNNNCYIPNGVIKEKKHDLSNNKMNGYVNHNFYGNYEENNVISTNDKYKNNCYYDNIRNIKEIGIFSKNLFDTMSNELRKKNFVLNIGGDHGVAFSSILSSLQMYQNLRVIWIDAHGDINIPETSPSGNYHGMTLAHTLGLFKKKVPYFEWSENLTYLKPENTAIIGIRDIDAYEKIILKKCNINYYTIFDIEKNGIYNTICTALEKIDPNSNCPIHISLDIDSVDNVFAPGTGTVAKGGLNYREINLLMKILAETKRVVSMDLVEYNPSLDEVDKKVHGDSLPILDNATKTGKLCLELIARVLGYDIV” as the sequence, how does the “soluble on expression in E. coli” value read?
Answer: soluble

Question: For “MGSSHHHHHHSSGLVPRGSHMASNPNDDMPVDKILEAELISDPKVEQVVPFEQVNENDPVSNICKAADRQLVTLVEWAKRIPHFSSLPLEDQVILLRAGWNELLIASFSHRSIDVKDSILLASGLHVHRHSAHQAGVGPIFDRVLTELVSKMRDMMMDKTELGCLRAVVLFNPDVKNPSDSAHIESLREKVYASLEAYCRSKYPDQPGRFAKLLLRLPALRSIGLKCLEHLFFFKLIGDTPIDKFLMNMLETTSDFPV”, which “soluble on expression in E. coli” value is on record?
Answer: soluble

Question: For “MGSSHHHHHHSSGLVPRGSHMEGRLLLLETPGNTRMSLAYDEAIYRSFQYGDKPILRFYRHDRSVIIGYFQVAEEEVDLDYMKKNGIMLARRYTGGGAVYHDLGDLNFSVVRSSDDMDITSMFRTMNEAVVNSLRILGLDARPGELNDVSIPVNKKTDIMAGEKKIMGAAGAMRKGAKLWHAAMLVHTDLDMLSAVLKVPDEKFRDKIAKSTRERVANVTDFVDVSIDEVRNALIRGFSETLHIDFREDTITEKEESLARELFDKKYSTEEWNMGLLRKEVV”, which “soluble on expression in E. coli” value is on record?
Answer: soluble

Question: Which “soluble on expression in E. coli” value does the source give for “MGSSHHHHHHSSGLVPRGSHMHSVVQSVTDRIIARSKASREAYLAALNDARNHGVHRSSLSCGNLAHGFAACNPDDKNALRQLTKANIGIITAFNDMLSAHQPYETYPDLLKKACQEVGSVAQVAGGVPAMCDGVTQGQPGMELSLLSREVIAMATAVGLSHNMFDGALLLGICDKIVPGLLIGALSFGHLPMLFVPAGPMKSGIPNKEKARIRQQFAQGKVDRAQLLEAEAQSYHSAGTCTFYGTANSNQLMLEVMGLQLPGSSFVNPDDPLREALNKMAAKQVCRLTELGTQYSPIGEVVNEKSIVNGIVALLATGGSTNLTMHIVAAARAAGIIVNWDDFSELSDAVPLLARVYPNGHADINHFHAAGGMAFLIKELLDAGLLHEDVNTVAGYGLRRYTQEPKLLDGELRWVDGPTVSLDTEVLTSVATPFQNNGGLKLLKGNLGRAVIKVSAVQPQHRVVEAPAVVIDDQNKLDALFKSGALDRDCVVVVKGQGPKANGMPELHKLTPLLGSLQDKGFKVALMTDGRMSGASGKVPAAIHLTPEAIDGGLIAKVQDGDLIRVDALTGELSLLVSDTELATRTATEIDLRHSRYGMGRELFGVLRSNLSSPETGARSTSAIDELY” here?
Answer: soluble

Question: With “MGSSHHHHHHSSGLVPRGSHMKPVLTVYTYDSFAADWGPGPVVKKAFEADCNCELKLVALEDGVSLLNRLRMEGKNSKADVVLGLDNNLLDAASKTGLFAKSGVAADAVNVPGGWNNDTFVPFDYGYFAFVYDKNKLKNPPQSLKELVESDQNWRVIYQDPRTSTPGLGLLLWMQKVYGDDAPQAWQKLAKKTVTVTKGWSEAYGLFLKGESDLVLSYTTSPAYHILEEKKDNYAAANFSEGHYLQVEVAARTAASKQPELAQKFLQFMVSPAFQNAIPTGNWMYPVANVTLPAGFEKLTKPATTLEFTPAEVAAQRQAWISEWQRAVSR” as the sequence, how does the “soluble on expression in E. coli” value read?
Answer: soluble

Question: For “MGSSHHHHHHSSGLVPRGSHMLPKPDQINQIIVLLNIYHGKKKPSEIAREMDITLQGVIYHMKNLRRDGLIDEENRITKKGFDFLYRQLSDMREFITSNILDLDSLMVWEAIAAEDITAGSTVHLRMKGGYLYAFLSGGGATGRAVNDSQAGGLVGITNLSGLIDVNFGKLSIIVIPDSIDGGISERLKKAAADLSPALFAAMGEAGYVALKNIGIEPDIEYSALQAAFEASVRGQNVVLVTSRRRLHYSMAEIPQLENRYNPVKANITDLS”, which “soluble on expression in E. coli” value is on record?
Answer: soluble

Question: Which “soluble on expression in E. coli” value does the source give for “MGSSHHHHHHSSGLVPRGSHMNIPRFGVKTDQEELLAQELENLNKWGLNIFCVSDYAGGRSLTCIMYMIFQERDLLKKFRIPVDTMVTYMLTLEDHYHADVAYHNSLHAADVLQSTHVLLATPALDAVFTDLEILAALFAAAIHDVDHPGVSNQFLINTNSELALMYNDESVLENHHLAVGFKLLQEDNCDIFQNLSKRQRQSLRKMVIDMVLATDMSKHMTLLADLKTMVETKKVTSSGVLLLDNYSDRIQVLRNMVHCADLSNPTKPLELYRQWTDRIMAEFFQQGDRERERGMEISPMCDKHTASVEKSQVGFIDYIVHPLWETWADLVHPDAQEILDTLEDNRDWYYSAI” here?
Answer: soluble

Question: For “MGSSHHHHHHSSGLVPRGSHMRTVTGAILAMNLEVKDFVHRDVEEADRRLREIGARKILLQLPDGLKPYAFDYFTYLSQRYDVILSSSPVYGACDIGPSYLYDRVDAIVQVGHSIMRNVKYPRPVIFIEHYRTVDVEDINTEALKNYRRIGLIYSIQYRPVADRVKRILESKGFEVIIGRSDRRMTYDGQVLGCNFSSVHSVEAEVEAFVIVSTGSFHALGSQISTERPVFLLDLNEMSLRSMEKEADTFIRKRYAQIYRAMDAKRICFLVDTRIGQRREKLARMLMDRARDLGKEAVLAYTDNISDQDIQNMGCDLAVYTGCPRVPIDDQDRFTVPVLTPAEFSMAFFKSSKRYVLDEIVSVDEFTDQ”, which “soluble on expression in E. coli” value is on record?
Answer: soluble

Question: For “MGSSHHHHHHSSGLVSRRHMNIDMAALHAIEVDRGISVNELLETIKSALLTAYRHTQGHQTDARIEIDRKTGVVRVIARETDEAGNLISEWDDTPEGFGRIAATTARQVMLQRFRDAENERTYGEFSTREGEIVAGVIQRDSRANARGLVVVRIGTETKASEGVIPAAEQVPGESYEHGNRLRCYVVGVTRGAREPLITLSRTHPNLVRKLFSLEVPEIADGSVEIVAVAREAGHRSKIAVRSNVAGLNAKGACIGPMGQRVRNVMSELSGEKIDIIDYDDDPARFVANALSPAKVVSVSVIDQTARAARVVVPDFQLSLAIGKEGQNARLAARLTGWRIDIRGDAPPPPPGQPEPGVSRGMAHDR”, which “soluble on expression in E. coli” value is on record?
Answer: soluble

Reference: the DeepSol protein solubility set
